B4: Tip20p, full-length (residues 1-701) (natural protein, S. cerevisiae, UniProt P33891 1-701, looked up)
chain: MNGIDDLLNINDRIKQVQNERNELASKLQNLKQSLASNDTEVALSEVIAQDIIEVGASVEGLEQLRAKYGDLQILNKLEKVAVQQTQMQAGVDKLDSFERQLDELAEQPPDQFTLDDVKALHSKLTSVFATVPQINNIDSQYAAYNKLKSKVTGKYNDVIIQRLATNWSNTFDQKLLEAQWDTQKFASTSVGLVKCLRENSTKLYQLSLLYLPLEEETQNGDSERPLSRSNNNQEPVLWNFKSLANNFNVRFTYHFHATSSSSKIETYFQFLNDYLAENLYKCINIFHDDCNGLTKPVIHEQFINYVLQPIRDKVRSTLFQNDLKTLIVLISQILATDKNLLNSFHYHGLGLVSLISDEVWEKWINYEVEMANRQFINITKNPEDFPKSSQNFVKLINKIYDYLEPFYDLDFDLLVRYKLMTCSLIFMNLTSSYLDYILTVDSLNETRTKEQELYQTMAKLQHVNFVYRKIKSLSSNFIFIQLTDIVNSTESKKYNSLFQNVENDYEKAMSTDMQNSIVHRIQKLLKETLRNYFKISTWSTLEMSVDENIGPSSVPSAELVNSINVLRRLINKLDSMDIPLAISLKVKNELLNVIVNYFTESILKLNKFNQNGLNQFLHDFKSLSSILSLPSHATNYKCMSLHELVKILKLKYDPNNQQFLNPEYIKTGNFTSLKEAYSIKYLKDTKIQDALYRIIYGNIL

Assay [1] deals with B4. In words: SEC.
Assay [2] addresses T1, Sec39p, full-length (residues 1-709) (S. cerevisiae, UniProt Q12745 1-709).
T1 sequence (looked up): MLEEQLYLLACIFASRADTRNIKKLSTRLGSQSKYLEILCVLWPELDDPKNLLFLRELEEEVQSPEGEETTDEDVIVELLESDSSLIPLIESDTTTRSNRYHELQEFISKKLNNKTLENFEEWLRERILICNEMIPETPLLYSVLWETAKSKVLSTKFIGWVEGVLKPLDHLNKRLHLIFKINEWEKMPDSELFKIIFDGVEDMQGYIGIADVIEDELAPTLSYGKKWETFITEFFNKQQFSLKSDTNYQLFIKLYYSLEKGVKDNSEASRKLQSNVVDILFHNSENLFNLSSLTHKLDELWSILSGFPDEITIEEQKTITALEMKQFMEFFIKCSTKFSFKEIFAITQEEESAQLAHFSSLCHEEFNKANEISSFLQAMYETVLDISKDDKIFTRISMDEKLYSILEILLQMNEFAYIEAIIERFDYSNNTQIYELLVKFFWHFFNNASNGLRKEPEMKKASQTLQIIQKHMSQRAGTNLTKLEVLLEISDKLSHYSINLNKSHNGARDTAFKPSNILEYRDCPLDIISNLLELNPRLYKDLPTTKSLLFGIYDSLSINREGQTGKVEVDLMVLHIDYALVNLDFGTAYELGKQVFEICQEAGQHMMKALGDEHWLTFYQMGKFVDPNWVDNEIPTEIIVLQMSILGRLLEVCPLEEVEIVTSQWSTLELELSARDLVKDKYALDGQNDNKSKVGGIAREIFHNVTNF
The assay can be described thus: SEC.

The target of assay [3] is T2, Dsl1p residues 37-339, as the C-terminal part of the Tip20p-Dsl1p fusion protein (S. cerevisiae, UniProt P53847 37-339).
T2 sequence (looked up): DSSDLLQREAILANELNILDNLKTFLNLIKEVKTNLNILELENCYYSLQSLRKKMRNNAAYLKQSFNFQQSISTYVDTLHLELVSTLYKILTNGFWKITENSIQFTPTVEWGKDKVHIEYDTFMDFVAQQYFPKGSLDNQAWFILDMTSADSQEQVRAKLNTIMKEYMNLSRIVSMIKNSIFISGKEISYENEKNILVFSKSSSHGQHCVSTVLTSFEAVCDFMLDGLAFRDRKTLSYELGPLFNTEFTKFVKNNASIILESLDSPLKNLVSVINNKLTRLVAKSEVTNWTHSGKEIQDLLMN
The assay can be described thus: crystal structure.

Assay [4] has as its target T3, Dsl1p-Sec39p complex (S. cerevisiae, UniProt P53847 1-754; Q12745 1-709).
T3 sequence (looked up) 1: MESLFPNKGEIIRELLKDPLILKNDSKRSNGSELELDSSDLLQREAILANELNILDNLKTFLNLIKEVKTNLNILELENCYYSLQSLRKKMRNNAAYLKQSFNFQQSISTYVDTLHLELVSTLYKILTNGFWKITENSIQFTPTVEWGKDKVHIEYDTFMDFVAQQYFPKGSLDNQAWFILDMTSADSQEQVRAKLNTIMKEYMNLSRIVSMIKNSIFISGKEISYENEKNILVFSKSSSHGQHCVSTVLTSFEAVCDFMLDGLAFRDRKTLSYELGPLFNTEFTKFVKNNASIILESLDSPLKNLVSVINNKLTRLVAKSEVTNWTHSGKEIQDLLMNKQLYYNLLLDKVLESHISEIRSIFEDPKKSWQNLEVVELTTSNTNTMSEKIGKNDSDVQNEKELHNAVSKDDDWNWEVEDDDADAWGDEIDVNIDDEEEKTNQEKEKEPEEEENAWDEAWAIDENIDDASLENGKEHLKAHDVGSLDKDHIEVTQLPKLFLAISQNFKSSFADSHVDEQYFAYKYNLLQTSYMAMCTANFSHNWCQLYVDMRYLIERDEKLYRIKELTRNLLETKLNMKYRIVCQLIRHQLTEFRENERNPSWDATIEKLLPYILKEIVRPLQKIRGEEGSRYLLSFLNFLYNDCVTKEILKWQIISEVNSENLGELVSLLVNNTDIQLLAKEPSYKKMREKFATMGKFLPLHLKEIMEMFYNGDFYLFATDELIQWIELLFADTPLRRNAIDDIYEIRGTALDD
T3 sequence (looked up) 2: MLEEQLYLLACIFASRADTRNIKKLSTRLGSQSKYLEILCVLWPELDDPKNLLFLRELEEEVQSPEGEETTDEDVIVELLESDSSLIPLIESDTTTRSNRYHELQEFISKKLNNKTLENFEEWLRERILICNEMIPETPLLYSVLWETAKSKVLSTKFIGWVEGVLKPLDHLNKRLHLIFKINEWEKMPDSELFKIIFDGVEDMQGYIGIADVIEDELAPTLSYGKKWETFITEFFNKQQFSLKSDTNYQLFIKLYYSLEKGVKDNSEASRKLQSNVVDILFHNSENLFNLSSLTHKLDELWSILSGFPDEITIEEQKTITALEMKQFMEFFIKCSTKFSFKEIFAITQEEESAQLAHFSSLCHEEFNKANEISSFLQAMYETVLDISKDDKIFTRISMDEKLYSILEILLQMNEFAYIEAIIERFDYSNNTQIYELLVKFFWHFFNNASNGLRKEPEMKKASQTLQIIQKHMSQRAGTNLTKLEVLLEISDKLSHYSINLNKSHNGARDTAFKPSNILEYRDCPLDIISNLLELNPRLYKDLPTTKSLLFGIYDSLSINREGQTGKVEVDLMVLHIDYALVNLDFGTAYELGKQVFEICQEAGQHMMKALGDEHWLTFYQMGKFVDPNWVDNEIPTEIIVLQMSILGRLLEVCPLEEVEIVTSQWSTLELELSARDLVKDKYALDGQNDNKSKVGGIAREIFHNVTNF
In words: SEC.

The target of assay [5] is T4, Dsl1p, full-length (residues 1-754) (S. cerevisiae, UniProt P53847 1-754).
T4 sequence (looked up): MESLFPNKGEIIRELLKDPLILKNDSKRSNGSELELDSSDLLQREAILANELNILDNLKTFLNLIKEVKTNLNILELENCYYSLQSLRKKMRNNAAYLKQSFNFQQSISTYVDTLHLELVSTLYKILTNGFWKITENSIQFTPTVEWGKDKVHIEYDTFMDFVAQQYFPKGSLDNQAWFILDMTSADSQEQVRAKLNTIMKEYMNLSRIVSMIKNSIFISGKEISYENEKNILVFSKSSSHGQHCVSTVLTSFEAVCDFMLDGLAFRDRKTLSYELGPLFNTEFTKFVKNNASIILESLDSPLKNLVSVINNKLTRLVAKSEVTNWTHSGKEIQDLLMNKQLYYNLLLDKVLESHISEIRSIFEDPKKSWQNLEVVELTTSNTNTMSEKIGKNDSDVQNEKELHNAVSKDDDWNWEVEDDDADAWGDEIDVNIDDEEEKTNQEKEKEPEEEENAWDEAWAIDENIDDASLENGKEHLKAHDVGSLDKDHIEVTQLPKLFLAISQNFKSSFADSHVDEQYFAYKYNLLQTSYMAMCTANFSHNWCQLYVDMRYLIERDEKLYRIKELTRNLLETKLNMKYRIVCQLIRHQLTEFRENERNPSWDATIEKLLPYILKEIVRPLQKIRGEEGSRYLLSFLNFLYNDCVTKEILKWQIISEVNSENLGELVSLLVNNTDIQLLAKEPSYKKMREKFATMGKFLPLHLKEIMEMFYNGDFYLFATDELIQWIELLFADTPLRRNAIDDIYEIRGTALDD
In words: SEC.

B1: Dsl1ΔC (L41E) (domain or fragment, S. cerevisiae, UniProt P53847 1-361, looked up)
chain: MESLFPNKGEIIRELLKDPLILKNDSKRSNGSELELDSSDELQREAILANELNILDNLKTFLNLIKEVKTNLNILELENCYYSLQSLRKKMRNNAAYLKQSFNFQQSISTYVDTLHLELVSTLYKILTNGFWKITENSIQFTPTVEWGKDKVHIEYDTFMDFVAQQYFPKGSLDNQAWFILDMTSADSQEQVRAKLNTIMKEYMNLSRIVSMIKNSIFISGKEISYENEKNILVFSKSSSHGQHCVSTVLTSFEAVCDFMLDGLAFRDRKTLSYELGPLFNTEFTKFVKNNASIILESLDSPLKNLVSVINNKLTRLVAKSEVTNWTHSGKEIQDLLMNKQLYYNLLLDKVLESHISEIRS
With B1, the binding result in assay [1] is recorded as “binds”.

B2: Dsl1ΔN1 (Dsl1p residues 340-754) (domain or fragment, S. cerevisiae, UniProt P53847 340-754, looked up)
chain: KQLYYNLLLDKVLESHISEIRSIFEDPKKSWQNLEVVELTTSNTNTMSEKIGKNDSDVQNEKELHNAVSKDDDWNWEVEDDDADAWGDEIDVNIDDEEEKTNQEKEKEPEEEENAWDEAWAIDENIDDASLENGKEHLKAHDVGSLDKDHIEVTQLPKLFLAISQNFKSSFADSHVDEQYFAYKYNLLQTSYMAMCTANFSHNWCQLYVDMRYLIERDEKLYRIKELTRNLLETKLNMKYRIVCQLIRHQLTEFRENERNPSWDATIEKLLPYILKEIVRPLQKIRGEEGSRYLLSFLNFLYNDCVTKEILKWQIISEVNSENLGELVSLLVNNTDIQLLAKEPSYKKMREKFATMGKFLPLHLKEIMEMFYNGDFYLFATDELIQWIELLFADTPLRRNAIDDIYEIRGTALDD
For B2, the binding result in assay [2] is “binds”.

B3: Dsl1ΔN (Dsl1p residues 57-754) (domain or fragment, S. cerevisiae, UniProt P53847 57-754, looked up)
chain: NLKTFLNLIKEVKTNLNILELENCYYSLQSLRKKMRNNAAYLKQSFNFQQSISTYVDTLHLELVSTLYKILTNGFWKITENSIQFTPTVEWGKDKVHIEYDTFMDFVAQQYFPKGSLDNQAWFILDMTSADSQEQVRAKLNTIMKEYMNLSRIVSMIKNSIFISGKEISYENEKNILVFSKSSSHGQHCVSTVLTSFEAVCDFMLDGLAFRDRKTLSYELGPLFNTEFTKFVKNNASIILESLDSPLKNLVSVINNKLTRLVAKSEVTNWTHSGKEIQDLLMNKQLYYNLLLDKVLESHISEIRSIFEDPKKSWQNLEVVELTTSNTNTMSEKIGKNDSDVQNEKELHNAVSKDDDWNWEVEDDDADAWGDEIDVNIDDEEEKTNQEKEKEPEEEENAWDEAWAIDENIDDASLENGKEHLKAHDVGSLDKDHIEVTQLPKLFLAISQNFKSSFADSHVDEQYFAYKYNLLQTSYMAMCTANFSHNWCQLYVDMRYLIERDEKLYRIKELTRNLLETKLNMKYRIVCQLIRHQLTEFRENERNPSWDATIEKLLPYILKEIVRPLQKIRGEEGSRYLLSFLNFLYNDCVTKEILKWQIISEVNSENLGELVSLLVNNTDIQLLAKEPSYKKMREKFATMGKFLPLHLKEIMEMFYNGDFYLFATDELIQWIELLFADTPLRRNAIDDIYEIRGTALDD
Regarding B3, the binding result in assay [2] is reported as “binds”.

Turning to MNGIDDLLNINDRIKQVQNERNELASKLQNLKQSLASNDT (domain or fragment, S. cerevisiae, UniProt P33891 1-40, looked up) [Tip20p residues 1-40, as the N-terminal part of the Tip20p-Dsl1p fusion protein], the binding result in assay [3] was “binds”.

In the case of B4, the binding result in assay [4] and in assay [5] was “binds” each time.

The record behind these values is publication PMC2635920 (Nature structural & molecular biology, 2009).
